According to patent US10836815B2, “Generation and comparative kinetic analysis of new glycosynthase mutants from Streptococcus pyogenes endoglycosidases for antibody glycoengineering” (UNIVERSITY OF MARYLAND, COLLEGE PARK, priority 2017, dated 2020):
Changes are numbered by the printed parent chain. Names may count otherwise. “Also recorded” adds a separate entry of the source.

B1: Endo-S D233M (protein)
chain: MDKHLLVKRTLGCVCAATLMGAALATHHDSLNTVKAEEKTVQVQKGLPSIDSLHYLSENSKKEFKEELSKAGQESQKVKEILAKAQQADKQAQELAKMKIPEKIPMKPLHGPLYGGYFRTWHDKTSDPTEKDKVNSMGELPKEVDLAFIFHDWTKDYSLFWKELATKHVPKLNKQGTRVIRTIPWRFLAGGDNSGIAEDTSKYPNTPEGNKALAKAIVDEYVYKYNLDGLDVMVEHDSIPKVDKKEDTAGVERSIQVFEEIGKLIGPKGVDKSRLFIMDSTYMADKNPLIERGAPYINLLLVQVYGSQGEKGGWEPVSNRPEKTMEERWQGYSKYIRPEQYMIGFSFYEENAQEGNLWYDINSRKDEDKANGINTDITGTRAERYARWQPKTGGVKGGIFSYAIDRDGVAHQPKKYAKQKEFKDATDNIFHSDYSVSKALKTVMLKDKSYDLIDEKDFPDKALREAVMAQVGTRKGDLERFNGTLRLDNPAIQSLEGLNKFKKLAQLDLIGLSRITKLDRSVLPANMKPGKDTLETVLETYKKDNKEEPATIPPVSLKVSGLTGLKELDLSGFDRETLAGLDAATLTSLEKVDISGNKLDLAPGTENRQIFDTMLSTISNHVGSNEQTVKFDKQKPTGHYPDTYGKTSLRLPVANEKVDLQSQLLFGTVTNQGTLINSEADYKAYQNHKIAGRSFVDSNYHYNNFKVSYENYTVKVTDSTLGTTTDKTLATDKEETYKVDFFSPADKTKAVHTAKVIVGDEKTMMVNLAEGATVIGGSADPVNARKVFDGQLGSETDNISLGWDSKQSIIFKLKEDGLIKHWRFFNDSARNPETTNKPIQEASLQIFNIKDYNLDNLLENPNKFDDEKYWITVDTYSAQGERATAFSNTLNNITSKYWRVVFDTKGDRYSSPVVPELQILGYPLPNADTIMKTVTTAKELSQQKDKFSQKMLDELKIKEMALETSLNSKIFDVTAINANAGVLKDCIEKRQLLKK
B2: Endo-S D233Q (protein)
chain: B1 chain with M233Q
B3: Endo-S D233A (protein)
chain: B1 chain with M233A

Columns and labels:
Format in all cases: biochemical
deglycosylated rituximab [1] = experiment: Transglycosylation activity assay of Endo-S and D233 mutants, LC-ESI-MS; conditions: for Transglycosylation Activity: deglycosylated rituximab 10.0 mg/mL, SCT-Oxa 1.38 mM (20 eq), enzyme 0.01 mg/mL, PBS pH 7.4, 30° C., duplicate; for Transglycosylation/Hydrolysis Ratio T/H: ratio of transglycosylation to hydrolysis activity, Table 1
Procedure: (§1) The hydrolytic activity of the mutants generated was evaluated using rituximab as the substrate, and the transglycosylation activity was evaluated using the sugar oxazoline and the deglycosylated rituximab as the donor and acceptor substrates, respectively (Scheme 1).
(§2) The LC-MS characterization of different antibody glycoforms was conducted on an Exactive Plus Orbitrap instrument (Thermo Scientific). The intact antibody sample was analyzed with a Waters XBridge™ BEH300 C4 column (3.5 μm, 2.1×50 mm). The program includes a 9 min linear gradient of 5-90% MeCN containing 0.1% formic acid at a flow rate of 0.4 mL/min. The original mass data were processed through deconvolution and integration through MagTran Software (Amgen).
(§3) Peptide-N-Glycosidase F (PNGase F) treated rituximab was used as the internal standard due to its similarities to the deglycosylated and transferred product in terms of their molecular structures and ionization efficiencies. After PNGase F treatment, a mutation will be introduced into the amino acid sequence of rituximab so the product antibody will not interfere with the reaction via re-glycosylation^35. A standard product S2G2F-rituximab was synthesized following the previously reported procedure^29. […] Serial dilutions containing a gradient of S2G2F-rituximab (0, 0.25, 0.5, 0.75, 1.0, 1.25 and 1.5 μM) were mixed with a stock solution containing 0.67 μM internal standard. These mixed sample solutions were quantified by selected ion monitoring (SIM) to calculate the single-point normalization factor^31. The factor could then be used to calculate the relative amount of the final product N-glycoform for each reaction in the following experiments.
(§4) The hydrolytic activity of each Endo-S mutants and the wild-type (0.01 mg/mL) was assayed in PBS (pH 7.4, 10 μl) at 30° C. with synthetic biantennary sialo-complex-type rituximab (1.0 mg/mL, 6.9 μM) as the starting material. Each reaction was terminated at 5 min and an aliquot was taken from the reaction mixture and dissolved in 0.1% formic acid. The relative quantity of the hydrolysis product was calculated through deconvolution and integration of the selected MS peaks. The experimental details of product quantification using LC-MS are illustrated below. The transglycosylation activity of Endo-S was measured in a similar fashion: deglycosylated Rituximab (10.0 mg/mL, 69 μM) was incubated with SCT-Oxa (1.38 mM, 20 eq) under catalysis of Endo-S enzymes (0.01 mg/mL) under the same condition as hydrolysis. The transglycosylation product SCT-Rituximab was analyzed as mentioned above. Both functional assays were repeated twice for each mutant and the wild-type, and the average activity was recorded

[2] = Kinetic measurements (KM, Vmax) of Endo-S/Endo-S2 mutants for SCT-Oxa; conditions: for Km / kcat: Endo-S mutants, donor substrate SCT-Oxa, PBS pH 7.4, 30° C.
Procedure: Using a sialylated glycan oxazoline (SCT-Oxa) as the donor and the deglycosylated rituximab as the acceptor substrate, we measured the kinetic parameters of the enzyme catalyzed glycosylation were measured. A mass spectrometry-based approach with an internal standard was used to estimate the product formation.^31-33.
as §3
Measurements of KM and Vmax for SCT-oxa. Serial dilutions with a total volume of 10 μL were prepared with a gradient of SCT-oxa concentrations and a constant deglycosylated antibody concentration mixed in PBS, pH 7.4. Each reaction was initiated by adding 1μμL, of Endo-S/S2 mutants with a concentration of 0.1 mg/M1 and the reaction was conducted at 30° C. The concentrations of SCT-oxa were within a range from 6.25 μM to 400 μM. For each reaction, three aliquots were taken at t=1, 2 and 3 min and immediately quenched in 100 μL 0.1% formic acid. The quenched reaction samples were then characterized by ESI-MS, and the concentration of product in each mixture was calculated using the normalization factor, as shown above. […] The KM and Vmax were measured by fitting the initial velocity against the SCT-oxa concentration using the GraphPad Prism7 program. The experiments were conducts in triplicate to determine the error in these measurements.

deglycosylated rituximab [3] = experiment: Kinetic measurements (KM, Vmax) of Endo-S/Endo-S2 mutants for deglycosylated rituximab
Excerpt: as §3
Measurements of KM and Vmax for SCT-oxa. Serial dilutions with a total volume of 10 μL were prepared with a gradient of SCT-oxa concentrations and a constant deglycosylated antibody concentration mixed in PBS, pH 7.4. Each reaction was initiated by adding 1μμL, of Endo-S/S2 mutants with a concentration of 0.1 mg/M1 and the reaction was conducted at 30° C. The concentrations of SCT-oxa were within a range from 6.25 μM to 400 μM. For each reaction, three aliquots were taken at t=1, 2 and 3 min and immediately quenched in 100 μL 0.1% formic acid. The quenched reaction samples were then characterized by ESI-MS, and the concentration of product in each mixture was calculated using the normalization factor, as shown above. A linear progression curve was confirmed for each reaction by sampling at multiple early time points and plotting them in the same graph, which emphasized that the V0 measured indeed represents the initial rate of each reaction. The KM and Vmax were measured by fitting the initial velocity against the SCT-oxa concentration using the GraphPad Prism7 program. The experiments were conducts in triplicate to determine the error in these measurements.
The KM and Vmax values of both Endo-S and Endo-S2 mutants for the deglycosylated antibody substrate were measured in a similar fashion as to those for SCT-Oxa. In the serial reactions, the concentrations of antibody range from 0.313 μM to 20 μM, whereas the SCT-Oxa concentration was fixed at 400 μM. A similar control reaction was also performed for each concentration to monitor the non-enzymatic side reactions.

rituximab = experiment: Hydrolysis activity assay of Endo-S and D233 mutants, LC-ESI-MS; conditions: for Specific Hydrolysis Activity: rituximab 1.0 mg/mL as substrate, enzyme 0.01 mg/mL, PBS pH 7.4, 30° C., 5 min, duplicate
Procedure: as §1, §2, §3, §4

deglycosylated rituximab [4] = experiment: Time-course comparison of transglycosylation with SCT-Oxazoline monitored by LC-ESI-MS (FIG. 1); conditions: D233M, D233Q, D233A compared with glycan oxazoline under same conditions
Excerpt: The data sets presented here are representative of three independent experiments.
The parallel reactions were monitored by LC-ESI-MS (FIG. 1).

[5] = Endo-S mutants, acceptor substrate deglycosylated rituximab, SCT-Oxa fixed at 400 μM

Row | Molecule | enhanced synthetic efficiency (T/H) over D233A (deglycosylated rituximab [1]; based on Table 1) [fold] | enhanced synthetic efficiency (T/H) over D233Q (deglycosylated rituximab [1]; based on Table 1) | transglycosylation activity (in words) (deglycosylated rituximab [1]; biantennary complex-type glycan oxazoline to deglycosylated rituximab) | Transglycosylation Activity (deglycosylated rituximab [1]) | Transglycosylation/Hydrolysis Ratio T/H (deglycosylated rituximab [1]) | overall efficiency for glycoform synthesis (T/H, in words) (deglycosylated rituximab [1]; ratio of transglycosylation/hydrolysis) | Km [2] [µM] | kcat [2] [s⁻¹] | increase in kcat/KM over Endo-S D233A ([2]; SCT-Oxa) [fold] | increase in turnover (kcat) over D233A ([2]; SCT-Oxa) | reduced affinity (KM) versus D233A ([2]; SCT-Oxa) | substrate affinity for the deglycosylated antibody (in words) (deglycosylated rituximab [3]; Asp-to-Met versus Asp-to-Ala mutant) | Km (deglycosylated rituximab [3]; [5]) [µM] | kcat (deglycosylated rituximab [3]; [5]) [s⁻¹] | Km (deglycosylated rituximab [3]; Endo-S mutants, acceptor substrate deglycosylated rituximab, SCT-Oxa fixed at 400 μM, listed as D233M) [µM] | Specific Hydrolysis Activity (rituximab) | hydrolysis activity (in words) (rituximab; rituximab as substrate, compared with wild type Endo-S and other mutants) | transglycosylation efficiency in time-course (in words) (deglycosylated rituximab [4])
1 | B1 | ~8 | approximately 3 fold | most significant transglycosylation activities; also recorded: relatively high transglycosylation activity | 2.71 100*(μmol/min/mg) | 135.50 | highest overall synthetic efficiency | 195 ± 7.21 | 0.0832 ± 0.0152 | 3 | approximately 4 fold | less than 2 fold | much higher substrate affinity than the D233A mutant | 30.2 ± 7.21 | 0.0922 ± 0.0318 | 30 | 0.02 100*(μmol/min/mg) | remarkably low residual hydrolysis activity | more efficient than the previously identified mutants, D233A and D233Q
2 | B2 | – | – | – | 0.98 100*(μmol/min/mg) | 19.60 | – | – | – | – | – | – | – | – | – | – | 0.05 100*(μmol/min/mg) | – | –
3 | B3 | – | – | – | 1.06 100*(μmol/min/mg) | 17.67 | – | 87.9 ± 10.1 | 0.0223 ± 0.00317 | – | – | – | – | > 200 | – | – | 0.06 100*(μmol/min/mg) | – | –
